The record followed here is US20200325237A1.

Assay [1] has as its target TfR2 (transferrin receptor 2) (UniProt Q9UP52). Kind of assay: A450 plate assay on TfR2 (method not described in the text).
For assay [2], the target named is hTfR (human transferrin receptor, source and construct not stated) (human) (UniProt P02786). Briefly: ELISA; ratio of the Kd on HFE-captured hTfR to the Kd on directly coated hTfR.
Assay [3] shares this target. Kind of assay: ELISA; ratio of the Kd on transferrin-captured hTfR to the Kd on directly coated hTfR.
The target is the same in assay [4]. Briefly: ELISA, biotinylated antibody on hTfR captured by plate-coated HFE (HFE+TfR); fit: specific binding with Hill slope.
The target is the same in assay [5]. Kind of assay: ELISA, biotinylated antibody on hTfR captured by plate-coated human holo-transferrin (Tf+TfR); fit: specific binding with Hill slope. Background: In an ELISA, binding on a coated surface is turned into a signal by an enzyme label.

Sequence of hTfR (human transferrin receptor, source and construct not stated) (human) (P02786 89-760 limits assumed): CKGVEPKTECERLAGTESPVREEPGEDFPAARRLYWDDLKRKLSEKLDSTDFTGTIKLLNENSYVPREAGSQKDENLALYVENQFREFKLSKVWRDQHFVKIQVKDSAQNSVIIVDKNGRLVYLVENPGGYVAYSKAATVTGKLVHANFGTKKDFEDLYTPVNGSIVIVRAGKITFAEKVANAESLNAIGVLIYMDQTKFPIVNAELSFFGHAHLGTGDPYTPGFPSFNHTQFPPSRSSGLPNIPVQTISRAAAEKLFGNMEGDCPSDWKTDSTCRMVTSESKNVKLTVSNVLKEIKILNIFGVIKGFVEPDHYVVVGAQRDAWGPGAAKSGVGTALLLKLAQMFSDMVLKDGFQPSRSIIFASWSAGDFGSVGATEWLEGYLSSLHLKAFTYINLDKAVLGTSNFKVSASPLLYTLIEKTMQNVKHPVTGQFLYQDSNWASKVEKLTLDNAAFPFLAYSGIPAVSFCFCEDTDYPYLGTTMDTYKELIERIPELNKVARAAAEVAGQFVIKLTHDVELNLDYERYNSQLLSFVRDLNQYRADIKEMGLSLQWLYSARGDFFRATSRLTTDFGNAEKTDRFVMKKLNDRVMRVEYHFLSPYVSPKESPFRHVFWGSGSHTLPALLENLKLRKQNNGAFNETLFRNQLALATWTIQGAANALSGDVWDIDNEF
Sequence of TfR2 (transferrin receptor 2) (Q9UP52 105-801 limits assumed): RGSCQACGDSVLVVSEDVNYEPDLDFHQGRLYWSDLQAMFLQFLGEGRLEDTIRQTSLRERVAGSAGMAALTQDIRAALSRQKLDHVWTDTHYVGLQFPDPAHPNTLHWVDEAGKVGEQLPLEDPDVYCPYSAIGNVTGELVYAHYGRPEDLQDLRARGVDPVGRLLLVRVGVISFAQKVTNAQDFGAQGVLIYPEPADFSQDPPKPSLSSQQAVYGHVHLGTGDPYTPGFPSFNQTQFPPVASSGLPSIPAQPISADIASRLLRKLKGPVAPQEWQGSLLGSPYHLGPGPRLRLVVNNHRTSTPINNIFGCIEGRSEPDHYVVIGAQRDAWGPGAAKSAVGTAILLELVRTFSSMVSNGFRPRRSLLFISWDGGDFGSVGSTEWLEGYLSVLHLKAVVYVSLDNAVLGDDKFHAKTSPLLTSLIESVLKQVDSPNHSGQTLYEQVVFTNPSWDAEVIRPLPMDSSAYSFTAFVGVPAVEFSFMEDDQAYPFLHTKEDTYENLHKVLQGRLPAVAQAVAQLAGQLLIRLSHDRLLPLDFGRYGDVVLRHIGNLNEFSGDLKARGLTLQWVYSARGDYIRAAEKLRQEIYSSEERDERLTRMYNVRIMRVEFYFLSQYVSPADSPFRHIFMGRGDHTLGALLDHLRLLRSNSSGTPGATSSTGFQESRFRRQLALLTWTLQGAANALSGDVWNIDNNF

As to TfR2 Ab B-6 (antibody), the half-maximal effective concentration (EC50 (read off the curve)) (in general, the midpoint of the concentration-response curve) in assay [1] was 0.3 nM.

With blocking AF2474 (antibody), the Kd(HFE+TfR)/Kd(TfR) in assay [2] was determined as 688. The Kd(Tf+TfR)/Kd(TfR) in assay [3] was found to be 51.8. Also, in assay [4], the Bmax turned out to be 5.7 A450; the Kd (in general, the concentration at which binding is half-saturated) was determined as 28.9 nM; the h was 0.8. In assay [5], this substance yielded a Bmax of 4.26 A450, a Kd of 2.18 nM and a h of 1.12.
